Where “and” joins values, the source holds several entries; their conditions need not be identical. Equal values may be shown once.
B1: TIE1 21-760 (protein)
chain: AAVDLTLLANLRLTDPQRFFLTCVSGEAGAGRGSDAWGPPLLLEKDDRIVRTPPGPPLRLARNGSHQVTLRGFSKPSDLVGVFSCVGGAGARRTRVIYVHNSPGAHLLPDKVTHTVNKGDTAVLSARVHKEKQTDVIWKSNGSYFYTLDWHEAQDGRFLLQLPNVQPPSSGIYSATYLEASPLGSAFFRLIVRGCGAGRWGPGCTKECPGCLHGGVCHDHDGECVCPPGFTGTRCEQACREGRFGQSCQEQCPGISGCRGLTFCLPDPYGCSCGSGWRGSQCQEACAPGHFGADCRLQCQCQNGGTCDRFSGCVCPSGWHGVHCEKSDRIPQILNMASELEFNLETMPRINCAAAGNPFPVRGSIELRKPDGTVLLSTKAIVEPEKTTAEFEVPRLVLADSGFWECRVSTSGGQDSRRFKVNVKVPPVPLAAPRLLTKQSRQLVVSPLVSFSGDGPISTVRLHYRPQDSTMDWSTIVVDPSENVTLMNLRPKTGYSVRVQLSRPGEGGEGAWGPPTLMTTDCPEPLLQPWLEGWHVEGTDRLRVSWSLPLVPGPLVGDGFLLRLWDGTRGQERRENVSSPQARTALLTGLTPGTHYQLDVQLYHCTLLGPASPPAHVLLPPSGPPAPRHLHAQALSDSEIQLTWKHPEALPGPISKYVVEVQVAGGAGDPLWIDVDRPEETSTIIRGLNASTRYLFRMRASIQGLGDWSNTVEESTLGNGLQAEGPVQESRAAEEGLDQQ
B2: SVEP1 2261-2890 (protein)
chain: PLDCGKPPPIQNGFMKGENFEVGSKVQFFCNEGYELVGDSSWTCQKSGKWNKKSNPKCMPAKCPEPPLLENQLVLKELTTEVGVVTFSCKEGHVLQGPSVLKCLPSQQWNDSFPVCKIVLCTPPPLISFGVPIPSSALHFGSTVKYSCVGGFFLRGNSTTLCQPDGTWSSPLPECVPVECPQPEEIPNGIIDVQGLAYLSTALYTCKPGFELVGNTTTLCGENGHWLGGKPTCKAIECLKPKEILNGKFSYTDLHYGQTVTYSCNRGFRLEGPSALTCLETGDWDVDAPSCNAIHCDSPQPIENGFVEGADYSYGAIIIYSCFPGFQVAGHAMQTCEESGWSSSIPTCMPIDCGLPPHIDFGDCTKLKDDQGYFEQEDDMMEVPYVTPHPPYHLGAVAKTWENTKESPATHSSNFLYGTMVSYTCNPGYELLGNPVLICQEDGTWNGSAPSCISIECDLPTAPENGFLRFTETSMGSAVQYSCKPGHILAGSDLRLCLENRKWSGASPRCEAISCKKPNPVMNGSIKGSNYTYLSTLYYECDPGYVLNGTERRTCQDDKNWDEDEPICIPVDCSSPPVSANGQVRGDEYTFQKEIEYTCNEGFLLEGARSRVCLANGSWSGATPDCVPVR

How the values were obtained:
SVEP1 919-3571 [1] = target: SVEP1 919-3571 (Homo sapiens, UniProt Q4LDE5, ANG2 present); assay: ELISA
SVEP1 919-3571 [2] = target: SVEP1 919-3571 (Homo sapiens, UniProt Q4LDE5, ANG1 present); assay: ELISA
SVEP1 919-3571 [3] = target: SVEP1 919-3571 (Homo sapiens, UniProt Q4LDE5); assay: ELISA
TIE1 21-760 = target: B1; assay: SPR

| Binder | Kd (SVEP1 919-3571 [1]) [nM] | Kd (SVEP1 919-3571 [2]) [nM] | Kd (SVEP1 919-3571 [3]) | Kd (TIE1 21-760) [nM] |
| --- | --- | --- | --- | --- |
| B1 | 55.6 | 82.4 | 189 nM and 147 nM |  |
| B2 |  |  |  | 62.5 |

— article PMC13722417 (2026)
